Like-named read-outs stand apart in the source and are kept apart here.
T1: αS1-casein (f1-9)
T1 chain: RPKHPIKHQ

T2: β-casein (f193-209)
T2 chain: YQEPVLGPVRGPFPIIV

T3: αS1-casein (f1-9)
T3 sequence: RPKHPIKHQ

T4: β-casein (f193-209)
T4 sequence: YQEPVLGPVRGPFPIIV

B1: Lactobacillus helveticus CNRZ32 endopeptidase PepF (protein)
chain: MAIPTRSEVPEDLKWDLTRIFKTDQDWENAFDKAKDDVAKLSELKGSLAKSGKDLYEGLTKILAVKRDVENIYVYATMSSDVDTSNSHYLGYVSRVQSLSNQFEATTSFINPEILSIPAEKFEQFKKDEPRLADYAHYLEMITNKRPHTLPAEEEKIIADAGDAMSVSENTFNVLTNSDMEYGYVQDEDGNMEQLSNGLYSLLIQSQNRDVRKGAFNTLYASYGQFQNSLASTLSGVVKKHNYNARMHKYDSAREAALADNGVPVEVYDTLIKEVDSHLDLLHRYVALRKKILGLKDLQMWDMYVPLTGKPALSYNFEEAKKVAKEAMKPLGEDYLKHVDYIFNNRVIDPVESKGKVTGAYSGGAYDTDPYELLNWEDNIDSLYTLVHETGHSVHSWYTRHSQPYIYGNYPIFVAEIASTTNENILTEYFLDHITDPKTRAFILNHYLDSFKGTLFRQTQFAVFEQFIHEADAKGEPLTADILDDVYGQINQHYYGDSVEPGGDIALEWSRIPHFYYNFYVYQYATGFAAATALANKVVHGSQADRDAYLGYLKSGSSDYPTEIMKRAGVDMTKPDYLKDAFKTFEKRLNEFESLIGK
B2: Lactobacillus helveticus CNRZ32 PepE expressed as PpepO3:pepE translational fusion in Lactococcus lactis LM0230 (pSUW666) (enzyme, UniProt P94870 1-438, looked up)
Aminopeptidase E: MAHELTVQELEKFSADFNKNPKNKVVARAAQRSGVLEASYNDRVQSELTRVFSTELDTDNVTNQKHSGRCWLFATLNVLRHEFGKKYKAKDFTFSQAYNFFWDKIERANMFYNRILDSADMPLDSRQVKTDLDFAGTDGGQFQMAAALVEKYGVVPSYAMPETFNTNDTTGFATALGDKLKKDALVLRKLKQEGKDDEIKKTREKFLSEVYQMTAIAVGEPPKKFDLEYRDDDKKYHLEKDLTPLEFLHKYLGGVDFDDYVVLTNAPDHEYDKLYGLPAEDNVSGSIRIKLLNVPMEYLTAASIAQLKDGEAVWFGNDVLRQMDRKTGYLDTNLYKLDDLFGVDLKMSKADRLKTGVGEVSHAMTLVGVDEDNGEVRQWKVENSWGDKSGAKGYYVMNNEWFNDYVYEVVVHKKYLTDKQKELAEGPITDLPAWDSLA
modifications: PpepO3 fusion junction residues; expressed in Lactococcus
B3: Lactobacillus helveticus CNRZ32 endopeptidase PepO2 (protein)
chain: MNLAKIRGGAGDITKPDLNARIQDNLYLAVNSDWISKAKIPADRPLISSFSEIDLKIEKELMNDLADFASGKKALPDIPNFDKAIEVYKLAKDFAKRDADGFQPAQADLETLINLKDVDDVKQNLAKLLLRFSFPFLFEVEPDRKNTKTNSLSFDRNSLILPDTTSYQSPSAKQLLDVWQKQTENLLKMAGVEEAAAKKYATDAIALDAKIVKVAKSAEERADDVALYNPIKTNEFEEKTSSLNLGQLLEQLFEKKPNYVVVSEPKFLDHFNELFNQESFDELKGWLISIFINKAAAFLSEEFRQAAFPFKQATYGQKELPSQEKEAYYKANNLFDDVIGVYYGRTYFGEDAKADVEDMIHRMIDVYEQRITNNEWLSPATKEKAITKLRALVLKIGYPNKIDHVYDLFQVTPANEGGNLYSNQANIREVSLKHNFDKLYKPVDRSEWYMPGNLINACYDPQRNDITFPAAILEAPFYDINASRATNYGGIGVVIAHEISHAFDNNGAKYDEFGNMKNWWTKEDFAEFEKRTQAEIDLFDGIKYGPVTLNGKQIVSENIADQGGLTAGIEANKNEHGDMKELFENYARIWASKESPEIIKTIAAFDVHAPGPVRVNVQVQCQPEFYKAFNVQEGDGMWLDPAKRVVI
B4: Lactobacillus helveticus CNRZ32 PepO2 expressed as PpepO3:pepO2 translational fusion in Lactococcus lactis LM0230 (pSUW665) (enzyme)
chain: B3 chain
modifications: PpepO3 start and BamHI junction residues
B5: Lactobacillus helveticus CNRZ32 endopeptidase PepO3 (protein)
chain: MTVRGGAGDITEADLSARPQDNLYLAVNSEWLKNAKIPSDRSRTSSFDGIDLNIEKELMQDFADFADGKKDLPDVPNFEKAVALYKIAKDFDRRNADGADPIQADLHEILGLRNFADFTLKAADFFKNGFPMPFDFSVEADMKNTKIHSLQFGGPGTFLPDTTTYKTPAAEKLLAVLKEQSINLLTMSGISKSEAEDYAEKALAYDAKIAKVVKSAEEWADYPATYNPISRDDFADKFKSFKMDYFLGELFAKKPERVINTEPRYLDYAEELLNEDVFAEIKAWMLVKFVNGVASSLSQEFREAAFPFSQALSGQPELPSGVKQAYHIANSDFSEVVGVYYGQTYFGAEAKADVTDMIHKMLDVYEKRIRENSWLSQATKDKAIVKLRALILKIGYPDKIEEIYDRLTVDPEASLYANEAQFGREQIKYNLEKLDQDVDRSVWLMPGNLVNACYDPQRNDLTFPAAILQKPFYDLKQSRSLNYGGIGVVIAHEISHAFDNNGAQFDEFGNMKNWWTEKDFAEFKKRTQAEIDLFDGIKYGPVTLNGKQIVSENIADQGGLTAAVEANKGEDGNMKELFENFARVWATKQLPESIKTQVSVDVHAPGPERANVQSQCQEEFYKAFDVTEHDGMWLDPEKRVVIW
B6: Lactobacillus helveticus CNRZ32 endopeptidase PepE2 (protein)
chain: MKHELTMAEIAKFQQEYKKEPQNRVAELAVVNNGVQKASFNTEGIRKLNRTFSIEIPTDNVTDQKQSGRCWLFAALNTLRHGFAKKYNTKNFTFSQNYLFFWDRVERANIFFDNILNTADKPLGDRTVHTYMQGPDADGGQWAMAVSLIRKYGLVPTYAQEESFTANNTAAFNRALNMKLREDGLILRKLAKENKTDEIETKRQEFLSEVYRMAVIAFGEPVQKFDLEFKDDDGKYHFDGDLTPLDFFHNYFTDDLDDYIVLFNAPDHEFDKLYALPFEDNVEGGTPVQFLNTEIDNLKEAAIKQLEAGETIWFGCDVGKDSDRQKGILSKGLYQTDTIFNIETKLSKKERLQTGASGSTHAMTLVGVDVVDGKPRQWKIENSWGAKVGEKGYFVMDDDWFNEYLFKVVVKKQYVPDKLVKIWEGEATPVEAWDSMA

Experiments:
αS1-casein (f1-9) [1] = target: T1, αS1-casein (f1-9)
β-casein (f193-209) [2] = target: T2, β-casein (f193-209)
αS1-casein (f1-9) [3] = test system: T3, αS1-casein (f1-9); remark: listed apart in the source
β-casein (f193-209) [4] = test system: T4, β-casein (f193-209); remark: listed apart in the source

Protein	Specific activity (E. coli CFE) (nmoles substrate hydrolyzed/h/mg protein) (β-casein (f193-209) [2])	Specific activity (E. coli CFE, control subtracted) (nmoles substrate hydrolyzed/h/mg protein) (β-casein (f193-209) [2])	Specific activity (Lc. lactis CFE), Cheddar cheese serum (αS1-casein (f1-9) [3])	Specific activity (Lc. lactis CFE), defined peptide mix (αS1-casein (f1-9) [3])	Specific activity (Lc. lactis CFE), individual peptide reaction (αS1-casein (f1-9) [3])	relative activity in the defined peptide mix (αS1-casein (f1-9) [3])	Specific activity (E. coli CFE) (nmoles substrate hydrolyzed/h/mg protein) (αS1-casein (f1-9) [1])	Specific activity (E. coli CFE, control subtracted) (nmoles substrate hydrolyzed/h/mg protein) (αS1-casein (f1-9) [1])	also measured
B1	14	14							Specific activity (E. coli CFE) (αS1-casein (f1-9) [1]): -
B2			31 (17)^c, C	120 (7)^a, B	190 (14)^a, A	PepE had highest activity towards αS1-CN (f1-9) and αS1-CN (f1-6)			
B3	290	290					1900	3700	hydrolysis detected by RP-HPLC (pH 6.5, 37° C.) (αS1-casein (f1-9) [1]): significant hydrolysis of both β-CN(f193-209) and αs1-CN(f1-9) was detected with CFEs from E. coli DH5α (pSUW99); hydrolysis detected by RP-HPLC (pH 6.5, 37° C.) (β-casein (f193-209) [2]): significant hydrolysis of both β-CN(f193-209) and αs1-CN(f1-9) was detected with CFEs from E. coli DH5α (pSUW99)
B4			150 (40)^a, B	84 (20)^b, C	240 (10)^a, A	PepO2 had highest activity towards peptides αS1-CN (f1-9), and αS1-CN (f1-13)			Specific activity (Lc. lactis CFE), Cheddar cheese serum (β-casein (f193-209) [4]): 120 (32)^a, A; Specific activity (Lc. lactis CFE), defined peptide mix (β-casein (f193-209) [4]): 42 (10)^a, B; Specific activity (Lc. lactis CFE), single peptide reaction (β-casein (f193-209) [4]): 64 (1.5)^a, B; hydrolysis in spiked Cheddar cheese serum (RP-HPLC) (β-casein (f193-209) [4]): hydrolyzed completely within 12 hours
B5	88	88					79	85	Specific activity (Lc. lactis CFE), Cheddar cheese serum (αS1-casein (f1-9) [1]): 63 (25)^b, A; Specific activity (Lc. lactis CFE), defined peptide mix (αS1-casein (f1-9) [1]): 38 (9.0)^c, A; Specific activity (Lc. lactis CFE), individual peptide reaction (αS1-casein (f1-9) [1]): 41 (19)^b, A; Specific activity (Lc. lactis CFE), Cheddar cheese serum (β-casein (f193-209) [2]): 61 (23)^b, A; Specific activity (Lc. lactis CFE), defined peptide mix (β-casein (f193-209) [2]): 40 (6.0)^a, B; Specific activity (Lc. lactis CFE), single peptide reaction (β-casein (f193-209) [2]): 81 (7.0)^a, A; hydrolysis in spiked Cheddar cheese serum (RP-HPLC) (β-casein (f193-209) [2]): hydrolyzed completely within 12 hours
B6									hydrolysis under simulated cheese ripening conditions (αS1-casein (f1-9) [1]): No hydrolysis of either peptide was detected after incubation with CFE from E. coli transformed with pepE2; hydrolysis under simulated cheese ripening conditions (β-casein (f193-209) [2]): No hydrolysis of either peptide was detected after incubation with CFE from E. coli transformed with pepE2
